Results on nine molecules are retold here after publication PMC4603797, “The Structural Differences between a Glycoprotein Specific F-Box Protein Fbs1 and Its Homologous Protein FBG3” (PLoS ONE, 2015).

Where a chain is given by its changes, count along the chain named.

For assay [1], the target named is ribonuclease B (UniProt P61823). Nature of the assay: pull-down. The following applies: read off a plot; for other: Relative RNase B binding (% of Skp1–Fbs1 wild type control): parent: n.d.; for percent of parent: parent: est. 100.
The target is the same in assay [2]. Nature of the assay: pull-down. The following applies: parent: est. 100; read off a plot.
A further assay has as its target T1, Fbs1 SBD L220K (murine, UniProt Q80UW2 117-297, L220K).
T1 construct: Fbs1/FBXO2, murine, SBD residues 117-297; Made with the KOD-Plus Mutagenesis kit; source: E. coli (pET15b), purified (Ni-NTA, gel filtration)
T1 sequence (looked up): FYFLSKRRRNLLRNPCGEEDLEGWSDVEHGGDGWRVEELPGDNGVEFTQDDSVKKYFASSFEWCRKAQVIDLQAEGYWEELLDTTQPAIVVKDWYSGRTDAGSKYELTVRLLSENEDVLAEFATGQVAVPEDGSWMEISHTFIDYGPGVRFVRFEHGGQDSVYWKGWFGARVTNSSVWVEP
Nature of the assay: pull-down; His-tagged Fbs1 SBDs (15 μg) immobilised on Ni-NTA agarose, incubated with 10.7 μg RNase B at 4°C for 1 h; 20 mM Tris-HCl pH 7.5, 20 mM imidazole, 500 mM NaCl; SDS-PAGE, CBB staining, densitometry. The following applies: both partners purified.

A further assay addresses T2, Fbs1 SBD T215P (murine, UniProt Q80UW2 117-297, T215P).
T2 construct: Fbs1/FBXO2, murine, SBD residues 117-297; Made with the KOD-Plus Mutagenesis kit; source: E. coli (pET15b), purified (Ni-NTA, gel filtration)
T2 sequence (looked up): T1 sequence (looked up) with T99P, K104L
The description is as above. To be noted: both partners purified.

The target in assay [3] is T3, SBD of Fbs1 (117–297), wild type (murine, UniProt Q80UW2 117-297).
T3 construct: In pET15b; also called Fbs1 SBD; Fbs1 wild type; source: E. coli Rosetta (DE3), purified (Ni-NTA, gel filtration)
T3 sequence (looked up): T1 sequence (looked up) with K104L
The description is as above. The following applies: both partners purified.

The target in the next assay is T4, Fbs1 SBD A217C (murine, UniProt Q80UW2 117-297, A217C).
T4 construct: Fbs1/FBXO2, murine, SBD residues 117-297; Made with the KOD-Plus Mutagenesis kit; source: E. coli (pET15b), purified (Ni-NTA, gel filtration)
T4 sequence (looked up): T1 sequence (looked up) with A101C, K104L
Described as above. To be noted: both partners purified.

As for “Skp1–FBG3 complex, wild type (His-tagged Skp1) (from UniProt P63208;Q9H4M3) loops β2-3/β5-6/β7-8 of FBG3 replaced by those of Fbs1”, the other: Relative RNase B binding (% of Skp1–Fbs1 wild type control) with ribonuclease B [1] is 84%.
Turning to “SBD of Fbs1 (117–297), wild type (from UniProt Q80UW2) loop β7-8 of Fbs1 replaced by that of FBG3”, in the assay with ribonuclease B [1], the percent of parent is 96%.
As for “Skp1–FBG3 complex, wild type (His-tagged Skp1) (from UniProt P63208;Q9H4M3) loops β2-3/β5-6/β7-8/β9-10 of FBG3 replaced by those of Fbs1”, the other: Relative RNase B binding (% of Skp1–Fbs1 wild type control) in the assay with ribonuclease B [1] was found to be 78%.
For the molecule “SBD of Fbs1 (117–297), wild type (from UniProt Q80UW2) loops β2-3/β5-6/β7-8/β9-10 of Fbs1 replaced by those of FBG3”, in the assay with ribonuclease B [1], the percent of parent came to 2.5%.
In the case of “SBD of Fbs1 (117–297), wild type (from UniProt Q80UW2) loops β2-3/β5-6 of Fbs1 replaced by those of FBG3”, in the assay with ribonuclease B [1], the percent of parent turned out to be 12%.
As to “SBD of Fbs1 (117–297), wild type (from UniProt Q80UW2) loop β9-10 of Fbs1 replaced by that of FBG3”, the percent of parent in the assay with ribonuclease B [1] is 110%.
Still for that read-out and setting: in the case of “SBD of Fbs1 (117–297), wild type (from UniProt Q80UW2) loop β2-3 of Fbs1 replaced by that of FBG3” it was 62%.
Consider “SBD of Fbs1 (117–297), wild type (from UniProt Q80UW2) loop β5-6 of Fbs1 replaced by that of FBG3”, for which the values for the percent of parent with ribonuclease B [2] and in the assay with ribonuclease B [1] were 25% and 28%, respectively.

B1: ribonuclease B (enzyme, bovine, UniProt P61823 27-150, looked up)
chain: KETAAAKFERQHMDSSTSAASSSNYCNQMMKSRNLTKDRCKPVNTFVHESLADVQAVCSQKNVACKNGQTNCYQSYSTMSITDCRETGSSKYPNCAYKTTQANKHIIVACEGNPYVPVHFDASV
modifications: a single high-mannose oligosaccharide
notes: ribonuclease B (glycosylated pancreatic ribonuclease), bovine pancreas; The Fbs proteins recognise the N-glycan of this glycoprotein; also called RNase B; source: bought: Sigma Aldrich (from bovine pancreas)
With B1, the binding result (in the assay with Fbs1 SBD L220K; with Fbs1 SBD T215P; in assay [3]; with Fbs1 SBD A217C) was “binds” throughout.
